# Experimental data: patent US20230158141A1 (YAFEI SHANGHAI BIOLOG MEDICINE SCIENCE AND TECHNOLOGY, published 2023)
# Where two headings read alike, the source gives them in different places.
# Assays:
# PD-1 = PD-1 (UniProt Q15116 25-167, limits assumed); test: ELISA, conjugate vs WT antibody
# CTLA-4 [1] = target: T1, CTLA-4 (UniProt P16410 36-162, limits assumed); test: ELISA, OD mutant/OD WT; B=70-90%
# T1 sequence (P16410 36-162 limits assumed): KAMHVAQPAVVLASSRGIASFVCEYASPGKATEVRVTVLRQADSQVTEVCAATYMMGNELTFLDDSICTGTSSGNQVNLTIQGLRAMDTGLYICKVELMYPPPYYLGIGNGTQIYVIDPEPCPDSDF
# CTLA-4 [2] = target: T2, CTLA-4 (UniProt P16410 36-162, limits assumed); test: ELISA; R4-1 on the Cys
# T2 construct: also called CTLA-4 protein
# T2 sequence (P16410 36-162 limits assumed): as above
# CTLA-4 [3] = target: T2, CTLA-4; test: ELISA; S47 on the Cys
# CTLA-4 [4] = target: T2, CTLA-4; test: ELISA; R4-1 on the Cys; remark: listed apart in the source
# CTLA-4 [5] = target: T1, CTLA-4; test: ELISA, conjugate vs WT antibody
# CTLA-4 [6] = target: T1, CTLA-4; test: ELISA, OD mutant/OD WT; ↓=less than 70%
# Sequence of PD-1 (Q15116 25-167 limits assumed): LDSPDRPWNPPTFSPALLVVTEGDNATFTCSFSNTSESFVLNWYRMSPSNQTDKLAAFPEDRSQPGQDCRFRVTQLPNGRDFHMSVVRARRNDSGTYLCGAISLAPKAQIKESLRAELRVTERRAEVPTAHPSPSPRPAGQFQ
binder,measurement,setting,value
"anti-PD-1 antibody 2 heavy chain A61C-R4-4 (antibody, human IgG4 S228P, kappa, V domains shown, R4-4 on Cys 61) VH: QVQLVESGGGVVQPGRSLRLDCKASGITFSNSGMHWVRQAPGKGLEWVAVIWYDGSKRYYCDSVKGRFTISRDNSKNTLFLQMNSLRAEDTAVYYCATNDDYWGQGTLVTVSS VL: EIVLTQSPATLSLSPGERATLSCRASQSVSSYLAWYQQKPGQAPRLLIYDASNRATGIPARFSGSGSGTDFTLTISSLEPEDFAVYYCQQSSNWPRTFGQGTKVEIKR",binding activity (% of WT),PD-1,83.9%
"anti-PD-1 antibody 2 heavy chain Y53C-R4-4 (antibody, human IgG4 S228P, kappa, V domains shown, R4-4 on Cys 53) VH: QVQLVESGGGVVQPGRSLRLDCKASGITFSNSGMHWVRQAPGKGLEWVAVIWCDGSKRYYADSVKGRFTISRDNSKNTLFLQMNSLRAEDTAVYYCATNDDYWGQGTLVTVSS VL: EIVLTQSPATLSLSPGERATLSCRASQSVSSYLAWYQQKPGQAPRLLIYDASNRATGIPARFSGSGSGTDFTLTISSLEPEDFAVYYCQQSSNWPRTFGQGTKVEIKR",binding activity (% of WT),PD-1,91.6%
"anti-PD-1 antibody 2 heavy chain K57C-R4-7 (antibody, human IgG4 S228P, kappa, V domains shown, R4-7 on Cys 57) VH: QVQLVESGGGVVQPGRSLRLDCKASGITFSNSGMHWVRQAPGKGLEWVAVIWYDGSCRYYADSVKGRFTISRDNSKNTLFLQMNSLRAEDTAVYYCATNDDYWGQGTLVTVSS VL: EIVLTQSPATLSLSPGERATLSCRASQSVSSYLAWYQQKPGQAPRLLIYDASNRATGIPARFSGSGSGTDFTLTISSLEPEDFAVYYCQQSSNWPRTFGQGTKVEIKR",binding activity (% of WT),PD-1,89.7%
"anti-PD-1 antibody 2 heavy chain K65C-R4-7 (antibody, human IgG4 S228P, kappa, V domains shown, R4-7 on Cys 65) VH: QVQLVESGGGVVQPGRSLRLDCKASGITFSNSGMHWVRQAPGKGLEWVAVIWYDGSKRYYADSVCGRFTISRDNSKNTLFLQMNSLRAEDTAVYYCATNDDYWGQGTLVTVSS VL: EIVLTQSPATLSLSPGERATLSCRASQSVSSYLAWYQQKPGQAPRLLIYDASNRATGIPARFSGSGSGTDFTLTISSLEPEDFAVYYCQQSSNWPRTFGQGTKVEIKR",binding activity (% of WT),PD-1,92.1%
"anti-PD-1 antibody 2 heavy chain S30C-R4-1 (antibody, human IgG4 S228P, kappa, V domains shown, R4-1 on Cys 30) VH: QVQLVESGGGVVQPGRSLRLDCKASGITFCNSGMHWVRQAPGKGLEWVAVIWYDGSKRYYADSVKGRFTISRDNSKNTLFLQMNSLRAEDTAVYYCATNDDYWGQGTLVTVSS VL: EIVLTQSPATLSLSPGERATLSCRASQSVSSYLAWYQQKPGQAPRLLIYDASNRATGIPARFSGSGSGTDFTLTISSLEPEDFAVYYCQQSSNWPRTFGQGTKVEIKR",binding activity (% of WT),PD-1,107%
"anti-PD-1 antibody 2 heavy chain S32C-R4-1 (antibody, human IgG4 S228P, kappa, V domains shown, R4-1 on Cys 32) VH: QVQLVESGGGVVQPGRSLRLDCKASGITFSNCGMHWVRQAPGKGLEWVAVIWYDGSKRYYADSVKGRFTISRDNSKNTLFLQMNSLRAEDTAVYYCATNDDYWGQGTLVTVSS VL: EIVLTQSPATLSLSPGERATLSCRASQSVSSYLAWYQQKPGQAPRLLIYDASNRATGIPARFSGSGSGTDFTLTISSLEPEDFAVYYCQQSSNWPRTFGQGTKVEIKR",binding activity (% of WT),PD-1,86.8%
"anti-CTLA-4 antibody heavy chain D54C (antibody, human IgG1, kappa, V domains shown) VH: QVQLVESGGGVVQPGRSLRLSCAASGFTFSSYTMHWVRQAPGKGLEWVTFISYCGNNKYYADSVKGRFTISRDNSKNTLYLQMNSLRAEDTAIYYCARTGWLGPFDYWGQGTLVTVSS VL: not shown",binding activity (OD after mutation/OD wild type),CTLA-4 [1],70 to 90%
"Ipilimumab L31 Ser to Cys (antibody, V domains shown, chain 2 pos 32 (Kabat L31): introduced Cys carrying the conjugated group of the row (R4-1 or S47), written C) VH: QVQLVESGGGVVQPGRSLRLSCAASGFTFSSYTMHWVRQAPGKGLEWVTFISYDGNNKYYADSVKGRFTISRDNSKNTLYLQMNSLRAEDTAIYYCARTGWLGPFDYWGQGTLVTVSS VL: not shown",Binding activity,CTLA-4 [2],99%
same,Activity after S47 (40 kD) blocking,CTLA-4 [3],12%
same,Binding activity,CTLA-4 [4],99%
"anti-CTLA-4 antibody heavy chain D106C-R4-3 (antibody, human IgG1, kappa, V domains shown, R4-3 on Cys 106) VH: QVQLVESGGGVVQPGRSLRLSCAASGFTFSSYTMHWVRQAPGKGLEWVTFISYDGNNKYYADSVKGRFTISRDNSKNTLYLQMNSLRAEDTAIYYCARTGWLGPFCYWGQGTLVTVSS VL: not shown",binding activity (% of WT),CTLA-4 [5],87.6%
"anti-CTLA-4 antibody heavy chain Y59C-R4-4 (antibody, human IgG1, kappa, V domains shown, R4-4 on Cys 59) VH: QVQLVESGGGVVQPGRSLRLSCAASGFTFSSYTMHWVRQAPGKGLEWVTFISYDGNNKCYADSVKGRFTISRDNSKNTLYLQMNSLRAEDTAIYYCARTGWLGPFDYWGQGTLVTVSS VL: not shown",binding activity (% of WT),CTLA-4 [5],89.1%
"Ipilimumab L51 Ala to Cys (antibody, V domains shown, chain 2 pos 52 (Kabat L51): introduced Cys carrying the conjugated group of the row (R4-1 or S47), written C) VH: QVQLVESGGGVVQPGRSLRLSCAASGFTFSSYTMHWVRQAPGKGLEWVTFISYDGNNKYYADSVKGRFTISRDNSKNTLYLQMNSLRAEDTAIYYCARTGWLGPFDYWGQGTLVTVSS VL: not shown",Binding activity,CTLA-4 [2],92%
same,Activity after S47 (40 kD) blocking,CTLA-4 [3],25%
same,Binding activity,CTLA-4 [4],92%
"Ipilimumab L52 Phe to Cys (antibody, V domains shown, chain 2 pos 53 (Kabat L52): introduced Cys carrying the conjugated group of the row (R4-1 or S47), written C) VH: QVQLVESGGGVVQPGRSLRLSCAASGFTFSSYTMHWVRQAPGKGLEWVTFISYDGNNKYYADSVKGRFTISRDNSKNTLYLQMNSLRAEDTAIYYCARTGWLGPFDYWGQGTLVTVSS VL: not shown",Binding activity,CTLA-4 [2],72%
same,Activity after S47 (40 kD) blocking,CTLA-4 [3],16%
same,Binding activity,CTLA-4 [4],72%
"Ipilimumab L34 Ala to Cys (antibody, V domains shown, chain 2 pos 35 (Kabat L34): introduced Cys carrying the conjugated group of the row (R4-1 or S47), written C) VH: QVQLVESGGGVVQPGRSLRLSCAASGFTFSSYTMHWVRQAPGKGLEWVTFISYDGNNKYYADSVKGRFTISRDNSKNTLYLQMNSLRAEDTAIYYCARTGWLGPFDYWGQGTLVTVSS VL: not shown",Binding activity,CTLA-4 [2],92%
same,Activity after S47 (40 kD) blocking,CTLA-4 [3],11%
same,Binding activity,CTLA-4 [4],92%
"anti-CTLA-4 antibody heavy chain Y53C (antibody, human IgG1, kappa, V domains shown) VH: QVQLVESGGGVVQPGRSLRLSCAASGFTFSSYTMHWVRQAPGKGLEWVTFISCDGNNKYYADSVKGRFTISRDNSKNTLYLQMNSLRAEDTAIYYCARTGWLGPFDYWGQGTLVTVSS VL: not shown",binding activity vs wild type,CTLA-4 [6],< 70%
"anti-CTLA-4 antibody heavy chain K65C-R4-7 (antibody, human IgG1, kappa, V domains shown, R4-7 on Cys 65) VH: QVQLVESGGGVVQPGRSLRLSCAASGFTFSSYTMHWVRQAPGKGLEWVTFISYDGNNKYYADSVCGRFTISRDNSKNTLYLQMNSLRAEDTAIYYCARTGWLGPFDYWGQGTLVTVSS VL: not shown",binding activity (% of WT),CTLA-4 [5],96.2%
"Ipilimumab L33 Leu to Cys (antibody, V domains shown, chain 2 pos 34 (Kabat L33): introduced Cys carrying the conjugated group of the row (R4-1 or S47), written C) VH: QVQLVESGGGVVQPGRSLRLSCAASGFTFSSYTMHWVRQAPGKGLEWVTFISYDGNNKYYADSVKGRFTISRDNSKNTLYLQMNSLRAEDTAIYYCARTGWLGPFDYWGQGTLVTVSS VL: not shown",Binding activity,CTLA-4 [2],95%
same,Activity after S47 (40 kD) blocking,CTLA-4 [3],6%
same,Binding activity,CTLA-4 [4],95%
"Ipilimumab L50 Gly to Cys (antibody, V domains shown, chain 2 pos 51 (Kabat L50): introduced Cys carrying the conjugated group of the row (R4-1, R4-3 or S47), written C) VH: QVQLVESGGGVVQPGRSLRLSCAASGFTFSSYTMHWVRQAPGKGLEWVTFISYDGNNKYYADSVKGRFTISRDNSKNTLYLQMNSLRAEDTAIYYCARTGWLGPFDYWGQGTLVTVSS VL: not shown",Binding activity,CTLA-4 [2],97%
same,Activity after S47 (40 kD) blocking,CTLA-4 [3],19%
same,Binding activity,CTLA-4 [4],97%
"anti-CTLA-4 antibody heavy chain Y59C (antibody, human IgG1, kappa, V domains shown) VH: QVQLVESGGGVVQPGRSLRLSCAASGFTFSSYTMHWVRQAPGKGLEWVTFISYDGNNKCYADSVKGRFTISRDNSKNTLYLQMNSLRAEDTAIYYCARTGWLGPFDYWGQGTLVTVSS VL: not shown",binding activity vs wild type,CTLA-4 [6],< 70%
"anti-CTLA-4 antibody heavy chain D106C (antibody, human IgG1, kappa, V domains shown) VH: QVQLVESGGGVVQPGRSLRLSCAASGFTFSSYTMHWVRQAPGKGLEWVTFISYDGNNKYYADSVKGRFTISRDNSKNTLYLQMNSLRAEDTAIYYCARTGWLGPFCYWGQGTLVTVSS VL: not shown",binding activity vs wild type,CTLA-4 [6],< 70%
"anti-CTLA-4 antibody heavy chain K58C (antibody, human IgG1, kappa, V domains shown) VH: QVQLVESGGGVVQPGRSLRLSCAASGFTFSSYTMHWVRQAPGKGLEWVTFISYDGNNCYYADSVKGRFTISRDNSKNTLYLQMNSLRAEDTAIYYCARTGWLGPFDYWGQGTLVTVSS VL: not shown",binding activity vs wild type,CTLA-4 [6],< 70%
"anti-CTLA-4 antibody heavy chain S31C-R4-1 (antibody, human IgG1, kappa, V domains shown, R4-1 on Cys 31) VH: QVQLVESGGGVVQPGRSLRLSCAASGFTFSCYTMHWVRQAPGKGLEWVTFISYDGNNKYYADSVKGRFTISRDNSKNTLYLQMNSLRAEDTAIYYCARTGWLGPFDYWGQGTLVTVSS VL: not shown",binding activity (% of WT),CTLA-4 [5],110%
"anti-CTLA-4 antibody heavy chain S30C-R4-1 (antibody, human IgG1, kappa, V domains shown, R4-1 on Cys 30) VH: QVQLVESGGGVVQPGRSLRLSCAASGFTFCSYTMHWVRQAPGKGLEWVTFISYDGNNKYYADSVKGRFTISRDNSKNTLYLQMNSLRAEDTAIYYCARTGWLGPFDYWGQGTLVTVSS VL: not shown",binding activity (% of WT),CTLA-4 [5],93.4%
"anti-CTLA-4 antibody heavy chain Y60C (antibody, human IgG1, kappa, V domains shown) VH: QVQLVESGGGVVQPGRSLRLSCAASGFTFSSYTMHWVRQAPGKGLEWVTFISYDGNNKYCADSVKGRFTISRDNSKNTLYLQMNSLRAEDTAIYYCARTGWLGPFDYWGQGTLVTVSS VL: not shown",binding activity vs wild type,CTLA-4 [6],< 70%
"anti-CTLA-4 antibody heavy chain K58C-R4-7 (antibody, human IgG1, kappa, V domains shown, R4-7 on Cys 58) VH: QVQLVESGGGVVQPGRSLRLSCAASGFTFSSYTMHWVRQAPGKGLEWVTFISYDGNNCYYADSVKGRFTISRDNSKNTLYLQMNSLRAEDTAIYYCARTGWLGPFDYWGQGTLVTVSS VL: not shown",binding activity (% of WT),CTLA-4 [5],87.6%
"anti-CTLA-4 antibody heavy chain K65C (antibody, human IgG1, kappa, V domains shown) VH: QVQLVESGGGVVQPGRSLRLSCAASGFTFSSYTMHWVRQAPGKGLEWVTFISYDGNNKYYADSVCGRFTISRDNSKNTLYLQMNSLRAEDTAIYYCARTGWLGPFDYWGQGTLVTVSS VL: not shown",binding activity vs wild type,CTLA-4 [6],< 70%
